Data from a protein production outcome set (Wang et al. 2014).

Test: label from the status in PepcDB records

Sequence	protein production
MPPRKKPKSSALKSNKQSSANHSSQPSTFGIQQLFLRHIQNSQSTSNSHTSTADPVDQQNVNGLASDTAVLTPQNPLGTSNEKPDESKDMDQQLTEASPKISKNLKRFSPGMLIKQSQDDCGGEITWKISPVNERLRAAAKNIPKMMDLTENSLGKQCPTSGITSKVEQWLSSPSKKASKRPAFATNRVMERVNPSPDAEFEIVNTSSSGNSPFQTPPSLSCPHNKLPCTVTCSGACGSMGAGQHKKALLELLDQVEDVIAVDDKTTDDVGIVMPQARVKDDIISSVVDCAVDEGPVSLPKMQNSINPDSYFLVLEVSEKRGSGSSSKGQCPYKVLRLLDEHTGVECALYLWDEWFYSTVSPGDSINVIGEFDGDGKCDVDRQNNFLIVHPDTLVAGTRVAASFGCPRRTVLDERLRSNEHATVALLGTLQHQVFQAGLSQESPSVDGLQEYASTVIEKSIESLYACGVHEGDVRSTLFKAIPKMLNWIEHFRYSKDSEVSKVDFGSTIGKKAVKVSEVIDIEEMSWAPKYGLKGMIDASVRVIVESDMNTVNEKIMPLEFKSGKAPSGQSSIEHSAQVILYTLLMSERYLKHIDNGLLYYLQSDQTQGISVQRSDLVGLIIRRNELANDILVASTTQQLPPMLRADGGNTESSGLGDVFDTHVSHLSTLHFNFLRHWDRLIDLEGREMQLLRKDIAHPHGSKGSHSASYLSSMVLDVTNGFQHHNSHKETRFIYRFVRQKSSESRERVTSEDMIRTGNLATDDLDCKLRTGDRVILRTEVSHLTVANGIIADISRTHISVSLSKRLRLPWSEPSSEVSNLSHELWRIYKDEFMTSFSVMRFNLMQLFVQNGHNIRKMIVDLEPPRFDNGSILSQDPAISYIWSEKSLNNDQRQAILKILTAKDYALILGMPGTGKTSTMVHAVKALLIRGSSILLASYTNSAVDNLLIKLKAQGIEFLRIGRDEAVHEEVRESCFSAMNMCSVEDIKKKLDQVKVVASTCLGINSPLLVNRRFDVCIIDEAGQIALPVSIGPLLFASTFVLVGDHYQLPPLVQSTEARENGMGISLFRRLSEAHPQAISVLQNQYRMCRGIMELSNALIYGDRLCCGSAEVADATLVLSTSSSTSPWLKKVLEPTRTVVFVNTDMLRAFEARDQNAINNPVEASIIAEIVEELVNNGVDSKDIGIITPYNSQASLIQHAIPTTPVEIHTIDKYQGRDKDCILVSFVRSREKPRSSASSLLGDWHRINVALTRAKKKLIMVGSQRTLSRVPLLMLLLNKVKEQSGILNLLPGDLKP	failed
MPQFPWKDNDAELSPLEAFLAEWDDPEAEEEDFRNDFFRGSEGRRKKAAVMLMAIWTVVITLHYWVWGSWLVWALTGALSLQALRLMKATPEEAPPLLTGDASTVPYPQVCLMVAAKNEEAVIGKIVQQLCSLDYPGDRHEVWIVDDNSTDRTPAILDQLRQQYPQLKVVRRGAGASGGKSGALNEVLAQTQGDIVGVFDADANVPKDLLRRVVPYFASPTFGALQVRKAIANEAVNFWTRGQGAEMALDAYFQQQRIVTGGIGELRGNGQFVARQALDAVGGWNEQTITDDLDLTIRLHLHQWKVGILVNPPVEEEGVTTAIALWHQRNRWAEGGYQRYLDYWRWICTQPMGWKKKLDLFSFLLMQYLLPTAAVPDLLMALWQRRFPLLTPLSYLAIGFSCWGMYYGLKRLTPSEGESPWQQMPALLARTIGGTIYMFHWLIIMPAVTARMAFRPKRLKWVKTVHGAATEDALELKQS	failed
MPQNYPWLNTEQPLSIKQLNGRVVILDFWTYCCINCLHVLPDLKYLEQKYKDSLTVIGVHSAKFDNEQETENIRQAILRYDIEHPVLVDKDFRVWQEYAVRAWPTLMVIDPKGYVIGYVSGEGNRDKLDQLITQVIQEHQGAINFQQLSLTLEKQRQPLITPLAFPGKVLATPSGLFVADSGHHRIVVSDFNGEILHLIGNGKSGLTDGNFQEAQFSAPQGMAFDMENQILYLADTENHALRRVDINQQTVETIAGTGEQSRNIQPHGGVGLETALNSPWDLVNIENSLYIAMAGVHQIWQMDLASGVIKTYAGTGVEACLDASLTESAFAQPSGITNNEQELYIADSEISSIRGVGLVEPQEVRTVCGSGGLFGFGDVDGQGEDVRLQHCLGVEYFQNYLWVADTYNHKIKSVSPHTGNCQTVLGDGLAGLQNGQGKNTRFFEPSGLSAIDSYLYISDTNNHVIRRVDLRTLEVTTMQFNGLCAPDVCIPNNFLEHHHHHH	not failed
MPQPDPQGFRRSLFLYRRAGMAEIGDFAVKFMIGIRSKRMITLPSLNNLPSKWDEIRHCLETRVFECGVMPYPNLTECEAGQFERDFWDNIGCAPEEYVRIRRAIRLLELRYPDSLNELVCAAIATPLGEMLAVFGVKGLCLLEFVGQKYLEQEIAAVQKALRGRFVFREDGRMQFLRQELDLYFKGHLKTFATPLEQIGTEFQKQAWDALLAIPYGETRSYKEQAQRLGNPKAVRAVAAANGQNKVSVMIPCHRVIGSDGKLTGYAGGLNRKQFLLALERGEVQTALF	failed
MPQPTSQQRASVASSQSTQGAVGWSAATGWVVLFVAVALVVWFVSLDMRHLVGPDEGRYAEISREMFASGDWVTIRYNALKYFEKPPFHMWVTVVGYELFGLGEWQARLAVALSGLLGIGVSMMAARRWFGARAAAFTGLALLAAPMWSVAAHFNTLDMTLAGVMSCVLAFMLMGQHPDASVAARRGWMVACWAAMGVAILTKGLVGIALPGLVLVVYTLVTRDWGLWRRLHLALGVVVMLVITVPWFYLVSVRNPEFPNFFFIHEHWQRYTSNIHSRSGSVFYFLPLVIGGFLPWAGIFPKLWTAMRAPVEGTQARFRPALMAGIWAIAIFVFFSISRSKLPGYIVPVIPALGILAGVALDRLSPRSWGKQLIGMAIVAACGLLASPVVATLNANHIPNSFYRAYAVWVAVAFVVMLLGIAVARLLLRRGVLPSVAVYAMGMYLGFTVALLGHETVGRPASGADIAPQIAQKLTPEMPLYGVQMLDHTLPFYLRHPLMMVGQADELTFGATVEPQRVVPDVDSFTKLWKNGQPAMAVMSPDTYLALAPTLSMYVVARDWRRVVVANVASLAGPQ	failed
MPQPTVLLLARADLSPVGTEFTTGPIDAHDPFDSGRRTAFVDEQGIAAGIVEFGTALSVEAYPYTEMLVMHRGSVTLTSGTDSVTLSTGESAVIGRGTQVRIDAQPESLWAFCASTQASGPDKSGITALDRLALLTPSSPPDPSIMISPLPQCRSNNLFEDTASTLRIGVWDSTPYERISRPHKIHELMNLIEGRVVLSLENGSSLTVNTGDTVFVAQGAPCKWTSTGYVRKFYAVT	not failed
MPQTSSLLGIDALYQFTGAGAQLFSGALFYTVIVRFFSASQVGAVALFIAIIGLFNLIFSFGLGTAVQHFASYHLGRQEYATAKSIVFKILILGIIFSSIGLITMFYLAKPISITFMHTAQYTPIVKLLSIVLVGDVLFGLLNGSALGLQLFRASGLMNIIIWITYYSTALVLAFLLKSLYYVVVGWSVGIFLGVILYLYLIIKSTKNYKGRPRHLTPSLLFQFSIPVLLSSIISYGATYIDRFIVAGLMTLSALGVYNFALLVASSIGFIVAPLNNIMLPKFSEFYGEGNRENIKNRTAIATTVVAGVYVPAALGVAVLSKMIITLLAGKYYEEGSDAISIIMVFSALFVTSNVMTQLIAAVRETRVFIYSSAASLASNAILSIILIPHFGIEGASIGFSSIYAASFFVLYKYAKKTGFYQANVYDLAKVWGSSLVMVFVVLAFEVRFGTSIDLLVPYILLGAVVYLGMIKSTRLIHRNEALFLSSLFPQSMPFITKLIRLISSE	failed
MPREFKSFGSTEKSLLSKGHGEPSYSEIYAEPENFLEIEVHNPKTHIPNGMDSKGMFTDYEIICRTNLPSFHKRVSKVRRRYSDFEFFRKCLIKEISMLNHPKVMVPHLPGKILLSNRFSNEVIEERRQGLNTWMQSVAGHPLLQSGSKVLVRFIEAEKFVG	not failed
MPRITTDTIIADVLRIDRGTIPIFLNNGLHCLGCPSAQGESIEEACALHGIDAQKLVDELNEYLKSKGLLDLEHHHHHH	not failed
MPRMEALFNTVVPVALVVLSGYLLGRQLEMDLSTLSRLTLYALVPALILDSMYRAEYTLEGVWGLVLGFSLTYALLFLLVQGAGKLFGLSRETTKTLLVCGLFPNSGNMGLSLVYFALGEEGLRRAVVYFLLSSALMFGLGPAFIRGGSLKEGLLFTLRLPLFYALFLGLLLKALGLSLPFRLEEGVRLMGQAAIPVLLLTLGMQMGKTRFHLGPFEGAASALRLLLAPLVAYGVGALLGLPRLEHQVLVLQSATPVAVNAFLLTREFGGDALRVARSVVVSTFLAFLTVPLVLYLLGVR	failed
MPRPDNVPVYTMRQLAAFVAVAETGTISGAAERMHLSQSALSAAVTDLEKALKAQLCVRRRARGVQLTPTGEAVLSRARALLQQAGELQSDASGEGGV	failed
MPRPSLRRGEETSGARSLHEIAPPAEKAVRKPLNLLPFRKDTPMTKDSYFHKSRAGVAGAPLFVLLHGTGGDENQFFDFGARLLPQATILSPVGDVSEHGAARFFRRTGEGVYDMVDLERATGKMADFIKANREHYQAGPVIGLGFSNGANILANVLIEQPELFDAAVLMHPLIPFEPKISPAKPTRRVLITAGERDPICPVQLTKALEESLKAQGGTVETVWHPGGHEIRSGEIDAVRGFLAAYGG	not failed
MPRRTATMLASTLMLIALLCAGVFIKVPYAEMSPGPTVNTLGEHDGEPVLQITGHKTYATTGHLNMTTVRVTSADYRMNLVEAVYGWLAHDNKVVPHDTLYPDGKTEEQSTQENAEEFSQSQESAKVAALKELDIPVKSWVIVSTVLKDSPAEGRLHAGDVIKAVDGTAVKAPDDVAELVTKHKPGDDVAFTILPAKEQAAAEKSKTYVPRTKKVTITTAKSDDTGAPRAIVGISAGTDHTFPFTVDIKLADVGGPSAGLMFALGIVDKLTPDDLTGGKFVAGTGTIDDDGKVGPIGGIEMKTVGAREKGAQYFLTPKDNCAAAAKDTPEGLTLVKVNTIDDALDALKDIRTGKTADLPKCTTKG	failed
MPRSQADSALAEAERHLAAGRSQQAREAFRRARLFFHRCADTDGEAIVLVRLGEAELAAGHLASAKEALSDALALLSHETDPSARADALHLMGSLKNAEKNAPERDRLWAEAVSAHRDHGNKAGEARVLRDQAQVAKATGKDDLAFDLFSRAHRLYADLGHSFHEAMILLEIGQLHRAQGRADLAHDALERAADLFRVNGDTLDEGRTRLTLARLLRDLGDKETALRDLTLCAKLFGANGHLGGQAEALIDLARLEAAKAPKAALKMLHQARALAARSGIPSLQTQAASEIARLDQAALKDTP	failed
MPRSTAASAPLTVRPFSLVPLMAAYMACTMSMMAFVSLIGPISRALHLETWHAGAAVTVSGVIWMLLARPWGQASDRFGRRRVLLLGTAGFTLAYWALCLFIDLSLQSLPSVAMAFLGLMLGRGLIGAFYAAIPVGGFALIADNVEPQHRARAMATLGAANAVGLVLGPAVAALLARYSLSLPFYAMAVLPLLAFLVLRYQLPRQELHLAQAPTRVRLGDPRLRRPMVVAFVAMLCVSVAQITVSFYALDRLHMSPADAAQTAGVALAMVGVALICAQLVVRKLEWPPLRMIRYGALLSALGYAGSMLVDSAWGLWLAFFVSAAGMGGVFPSFSALAANAVEASEQGATAGSIGAAQGLGVVIGPMAGSLIYAIEPRLPYLLAAVLLVLIAIWPAPQPKDL	failed
MPRTQKNDNFVDKSFTVMADIILKILPTNKKAKEAFVYYRDGMSAQAEGEYAEALEYYEEALTLEEDTNDRGYILYNMGLIYASNGDHDKALELYHQAIELNPRLPQALNNIAVIYHYQGEKAKETGDHDGGEALFDQAADYWIRAIRMAPNNYIEAQNWLKTTGRMQIDVFF	failed
MPSDNQRLALLPVGRTGRLDRPSLLLTGGSGVLGRALIDELSPDFDLLCLRRDTPLRDPRVRELQGDLVAPRLGLSPLAWHELALEVDVVLHCAAETDWRTPPQDITRTNLRGADTVLDLAARADAPLYLVSTAFVANTPTEEDRRHFPGAAAYLDSMARAEQMTREAGVPGAIVRPSVVMGDSGSGRIAGRQGLTRMIGSMVLGQAPVLPGAPATRIDMVPRDYVSRAIGDLVRGGVADGEYWLTAGQEAMGLREFADVCADVAVRHGLPRPQRPRFIPVDAVHRLLLPMLAGTSLPASLRRRLEYYAELLLVFQRELPFDTSLGEPDCGTRPTRTDLRAALVRNAESWAGNRAGLLSPNRSAATAPMEVAS	failed
